Experimental data from the DeepSol protein solubility set.

Experiment: soluble on expression in E. coli; label from the status in PepcDB or PDB records

Row | Sequence | soluble on expression in E. coli
1 | MGSDKIHHHHHHMSKHVPKATLLTPSDVAFITDANRPVLTHTRNMAAEAGIEPHSHPRGQLLWAAKGLLRVRSENAVWVVPSTHAVWIPCNLPHQVNSETHAHTRNIYIDPSYDVRSLDTQVVMVTMTALMRELVLKLCESSHLMNSGQLHRLGLVAIDELETLDSLDAHLPAGSDPRLSRLIQKLIRHPTVNYTLTELAEMGGASVRTIERLFKAETGLTYRQWRQRFRLLNSLESLSQGESTTRVAHSLGYLSVSSFSAAFKMQFGCTPQDYPQHKPMKSKVNWFPDPVTGNN | not soluble
2 | MASSSLVRIAVVGDIHGFWNLDEDRKALRVLQERKTKTKRCSNATRYMDFPSFKLSIVGGRPFSHGGDRLFRKNLLVQRYGVHDMEASAGSICRAAHGTPEDHVAIILAHNGPTGLGWQAEDICGKDWGAEGGDHGDPDLEQAIRQLKETTKLSIPLVVFGHMHKELQRGKGNRKMVVQDSDNQTVYVNGAIVPRVKEAKKRGAAESESGGTTRAFTLVEILDGKIKKIAEIWVHVNGSMAKIVEENTLFEDVT | soluble
3 | LMINDVPGLVTAWWDEELQALRIKWFTEYAEGSAVADAVEFAMTYVNENGVKNWLCDLSESQEALKAEDQEWVQTEFKRLIAESSLEKVVLIPPLPETGQDTEWLKDWEANTKRDYGGQIDARLLSEEGEIQRFFEKG | not soluble
4 | MTDTIKIYHNPRCSKSRDTLNLLKSNGVEPEVVLYLDTPADAATVRELLRMLGMSSARELMRQKEDLYKTLHLADSELSEEALIQALVEHPKLMERPIVVANGQARIGRPPEQVLDILG | not soluble
5 | MGSDKIHHHHHHMLTTLAIGNYRSINHLVLPLSQLNLVTGANGSGKSNLYKALRLLAETAQGGVVEALAREGGLDSTWWAGPETSARMRRGEVPIQGQHPSEVRRLRLGFATEDLGFAITLGLPIPLPYPSAFMLDPEIKCEAIWGAGAYRPSSLLVERKNALVRAREGNRWAVLDQHADSGESFFNIVGRPRQAPEIGDLRAFINSWRFYDHFRIDRDAPCRQPQLGTRSPVLHHDGRNLASALQTIIEIGDVEDLEEALNDAFPGSRLEINAPPGGLFSVRLHQHGLLRPLEGAELSDGTLRYLLLMAALLTPRPPSLMVLNEPETSLHADLLPALARLIIRASRRSQVWVVSHSAPLINALAACDGCNVLELEKIQGQTQLRGVGLLDEPLWRWAD | not soluble
6 | DVKLVESGGGLVKPGRSLKLSCAASGFTFSDYYMFWVRQTPEQRLEWVATISDGGAYTYYPDSVKGRFTISRDNAKNNLYLQMNSLKSEDTGMYYCARDPLEYYGMDYWGQGTSVAVSSAKTTAPSVYPLAPVCGDTTGSSVTLGCLVKGYFPEPVTVTWNSGSLSSGVHTFPAVLQSDLYTLSSSVNVTSSTWPSQSITCNVAHPASSTKVDKKIVPR | soluble
7 | MMQPVIRKNHMDIAWHEYTDENGADIPVTQASLTEKASIIGRVGIMFLSCGTGAWRVRSSMNTLAEIMGITCTADIGLMSIEYTCFDGEEGFTQSLCLTNTGVNTSKLNRLEHFIREFEIDGKDMSGEELHTLLDDIER | not soluble
8 | MDKIASDKDLREPDAGLLLNIFDLYYDLASAPAQYAAKRAHILEAAKKASTWHIRHVAPKYKNYVVVIGESARSDYMNVYGFPLPDTPFLSQTKGLLINGYQSTAHATNLSLPQTLGLPGEPNNNIVSLAKQAGFRTAWLSNQGMLGHFANEISTYALRSDYPWFTQRGDYGKSAGLSDRLLLPAFKRVLIGNAGTKPRLIVMHLMGSHSDFCTRLDKDARRFQYQTEKISCYVSTIAQTDKFLEDTVKILNENKESWSLVYFSDHGLMHVGKGGERTLTHGAWKRQSYGVPLVKISSDDTRREMIKVRRSAFNFLRGFGSWTGIETDELPDDGYDFWGNVPDVQGEGNNLAFIDGLPDDPAPWYAGKGKSTKNTSKK | not soluble
9 | HRVGLYEKALPNHLSWEEKLACTKELGFDFLEISVDESDERRSRLDWDDATIYSLHRLCEEYGVPLQSMCLSAHRKFPFGSADPALRDEALKIMQKAITLAYKLGIRTIQLAGYDVYYEPANSATHQRFIEGMQHAARLAERAGVMLAVEIMDTPYLNALSKFEVLNRQIQSPFFTAYPDVGNISGWNYDLLTELSLSKPHITQIHLKDTYKVSEQYAGQFRDLVIGEGDVDFDELFCRLKALDCVVPLVIEMWAHDEQWQQHIHTAQRRLNQACDRAELP | not soluble
10 | MGSDKIHHHHHHMKVLLIIPAYNEEENILRTIASIETFKQEVTHFQHELDYVVINDGSTDGTKQILEANQINAIHLVLNLGIGGAVQTGYKYALENEYDVAVQFDGDGQHDINSLPILLEPLAEGKCDFSIGSRFIPGNEASFQSTKMRRFGIRLLSFCIRMASGKTIYDVTSGYRAGNRKVIAFFAKRYPTNYPEPESIVHLIKKRFVIVERPVNMMERLGGVSSIRALASVKYMLEVGSAILIAAFMKEGD | not soluble
11 | MGSDKIHHHHHHMRALLCGYYGEGNGGDEALLAALLQLLPPTVEPLVLSGNPAATRTCYGVEACDRRSGAAVWQALRRSDLFIFGGGSLIQDVTSWTSPLYYCGLMGLAQQLGLKTIAWAQGIGPLQRKRTRWLARRTFQHCDRITVRDRGSAALLKEWGISVAIAPDPVWALEPLPLDQPLSNQEAIAVCLRPHPELTPERSDRLKAALTTLQSQTQAPILLIPFHHQQDRPLAAQWASEIPQAEVLDWQHPRQLLSYFQSVRLTIAMRFHGLVMAAAAGNRCFGLSYDPKVRRFLDALEQPGWDLPEIPDSAEAIAAAWLESWQAEPIHAAAIADLRQQVDVHRQALVF | not soluble
12 | MGSDKIHHHHHHMTDEHSVFEYKIGLLAPSRVGKSTLIAGLLTEGQQQLAQDSSVHLLTADRPTKNRLAATYNLVSGALKARMFEPGLVPSTSDPSWFRLLLEARGQDLQIRFDILDYPGAWLEGAGEGTEDEQKWNECEAFLADSSVLILPIDSVLLMDSGDDHAHLLASHLSVFQINQAVLRWAKNRRELSGEPAMIVFCPVKCETYLSDSGSLQDHAGTLRGKVVDQFSDVLKTVRDAAPHAAVRYLPIDTFGCVELVSARWIHAQGSPGGEMLVPKYRVRPPGQIVRKGLDDLLTLLCRQLVDTARAQSERTTAAKQTAALNSRNHAELREGFFRDLWLNFNGERNRRRHTAATDERLFAMSQRTTQSLFDVLTALAGRESGPRLHHLS | not soluble
